Assay results taken from publication PMC4070910, “Cathepsin S Signals via PAR2 and Generates a Novel Tethered Ligand Receptor Agonist” (PLoS ONE, 2014).
Entries after “also recorded” stand apart in the source; their conditions may differ.

Legend:
[1] = cited from earlier work
Excerpt: To better understand the mechanisms of PAR2 activation and regulation, we sought to identify cleavage sites and downstream signaling events induced by an endogenous cysteine protease, cathepsin S. Cysteine cathepsins, including cathepsin S, have been broadly implicated in health and disease including inflammation, cardiovascular and pulmonary disease, obsesity, itch and pain[15]. […] Cathepsin S is expressed in many types of cells. […] The KVDGTS sequence is preceded by LIG, placing G^40 in the P1 postion and L^38 in the P3 postion. The finding of cleavage after glycine is consistent with what is reported in the MEROPS database and a recent report on proteomic identification of protease cleavage sites (PICS)[25]. These reports reveal that cleavage after leucine at P3 is associated with cathepsin S, but less so than with glycine at P1. Correlations were otherwise weak between these reports and the cleavage sites identified here. Cathep ...

[2] = Specific activity of recombinant cathepsin S; type: biochemical; conditions: Z-VVR-AMC fluorimetric and Z-FR-pNA colorimetric assays
Protocol: Recombinant human cathepsin S was produced as follows. The human cathepsin S proprotein coding region was isolated by PCR using the forward and reverse primers […] CCTG and […] and a template of plasmid DNA containing the entire coding sequence of human cathepsin S. The PCR product was cut with Nco I and Xho I, and cloned into the pTYB4 expression vector from New England Biolabs for expression in E.coli. Cells were grown in LB medium induced with 0.3 mM IPTG, harvested by centrifugation, resuspended in lysis buffer A (0.5 M NaCl, 0.05 M Tris, 5 mM EDTA, pH 8.0) and lysed in a French press. The lysate was centrifuged and the protein was found predominantly in inclusion bodies which were dissolved in buffer B (10 mM DTT and 8 M urea), and refolded in the presence of buffer B containing 0.7 M L-arginine, 0.01 M glutathione, 0.001 M glutathione disulfide, and 0.005 M EDTA as described. The refolded procathepsin S was concentrated by Minimate Concentrator (Pall Corporation) and washed three times with buffer A. It was activated after adjusting to pH 4.5 with acetic acid, adding DTT to 5 µM and incubating at 37°C for 3 hours. […] The specific activity of cathepsin S was assayed using Z-VVR-AMC in fluorimetric and Z-FR-pNA in colorimetric assays[22] and determined to be 10,000 mU/mg protein.

[3] = test system: HeLa cells transfected with salmon sperm DNA; assay: Fura-2 calcium imaging in HeLa cells transfected with salmon sperm DNA (control); type: cell-based; conditions: HeLa cells transfected with salmon sperm DNA alone
Protocol: (§1) Human PAR2 cDNA was cloned as an Xho I-Hind III fragment (1206 bp) into pcDNA3.1(−). 10 µg of DNA were diluted into 0.5 ml of DMEM and mixed with 0.5 ml of DMEM containing 10 µl of Lipofectamine 2000 transfection reagent and incubated at room temperature for 20 minutes. HeLa cells were grown to confluence, trypsinized and 1×10^6 cells were pelleted in a 15 ml tube by centrifugation at 1000 rpm for 5 minutes. The DMEM-Lipofectamine 2000-DNA mixture (1 ml) was added to the cell pellet, resuspended gently and incubated at room temperature for 20 minutes. Four ml of complete DMEM with 10% FBS were added to the tube, mixed by inverting the tube several times, plated into a 96-well glass bottom plate at 20,000 cells/well, and placed in a 37°C CO2 incubator. HeLa cells transfected with vector alone or salmon sperm DNA (shown in the figures) were plated as a control. The medium was aspirated two days after transfection. Fura-2 was used as a ratiometric calcium-sensitive indicator as follows. […]
(§2) Imaging was performed using a Zeiss Axiovert 200 M microscope platform equipped with a flipping filter wheel for ratiometric imaging. […] The software later analyzed all images taken during each excitation period. Typically, ratiometric changes were measured in 10–20 cells in each image. An average of the fluorescence of the cells in each image was calculated and plotted against time in seconds.

[4] = test system: NHEKs which endogenously express PAR2; assay: Calcium imaging in normal human epidermal keratinocytes (NHEKs); type: cell-based
Excerpt: HeLa cells were obtained from the ATCC and maintained in DMEM supplemented with fetal bovine serum (Fisher Biochemicals), L-glutamine, penicillin and streptomycin. Normal human epidermal keratinocytes (NHEKs) were harvested from neonatal foreskin and maintained in Keratinocyte Serum-Free media supplemented with epidermal growth factor, bovine pituitary extract, L-glutamine, penicillin and streptomycin. All reagents were obtained from Invitrogen unless otherwise noted.
as §1, with “follows. 100 µl of complete DMEM containing 2 µM of Fura-2 were added to each well and left at room temperature in the dark for 1 hr.” for “follows.”
as §2

[5] = test system: luciferase-PAR2 and PAR2 mutants; assay: Western blot for Gaussia luciferase in supernatants; type: cell-based, human; conditions: luciferase-PAR2, PAR2M1, PAR2M2, PAR2M3; cathepsin S 2 µM
Protocol: HeLa cells were transfected and treated with cathepsin S as described for the luciferase assay. After treatment with cathepsin S, cells were pelleted at 14,000 rpm for 3 minutes. Supernatants (100 µl) were collected and denatured with 1 µl of 10% SDS. Equal volumes of supernatants were prepared in loading buffer, heated at 90°C for 5 minutes, run on NuPAGE Novex Bis-Tris mini gels and transferred to nitrocellulose membranes using standard protocols. The blot was probed with a primary rabbit anti-Gaussia luciferase antibody. HRP-conjugated donkey anti-rabbit antibody was used to identify the relevant bands on the membrane.

B1: cathepsin S: Recombinant human cathepsin S, cysteine protease, expressed in E.coli, refolded and activated (protein, UniProt P25774 115-331, looked up)
Cathepsin S: LPDSVDWREKGCVTEVKYQGSCGACWAFSAVGALEAQLKLKTGKLVSLSAQNLVDCSTEKYGNKGCNGGFMTTAFQYIIDNKGIDSDASYPYKAMDQKCQYDSKYRAATCSKYTELPYGREDVLKEAVANKGPVSVGVDARHPSFFLYRSGVYYEPSCTQNVNHGVLVVGYGDLNGKEYWLVKNSWGHNFGEEGYIRMARNKGNHCGIASFPSYPEI
cleavage after alanine (in words) ([1]; PICS report): rarely cleaves after alanine | elastase activity and Ii chain cleavage (in words) [1]: potent elastase; also recorded: cleaves the Ii chain | pH dependence of activity (in words) [1]: active at neutral pH | specific activity [2]: 10,000 mU/mg protein | calcium response in cells without PAR2 (in words) [3]: Neither cathepsin S nor any of the peptides induced calcium responses | calcium response in NHEKs (in words) ([4]; KVDGTS 100 µM, cathepsin S 2 µM): activated NHEKs | calcium response to the substance as second agent after KVDGTS (in words) ([4]; NHEKs, KVDGTS 100 µM then cathepsin S 2 µM, second agent at 300 s): attenuated | effect as first agent on calcium response to second agent (in words) ([4]; NHEKs, KVDGTS 100 µM, cathepsin S 2 µM, second agent at 300 s): abolishes the response to the subsequent addtion of KVDGTS | receptor cleavage, anti-luciferase western blot (in words) [5]: confirmed the results of the luminescence assay
